Three sequences from article PMC12016518 can be followed below.

This data set deals with T1, VPA1365-His (Vibrio parahaemolyticus RIMD2210633) (UniProt Q87GF1).
T1 sequence: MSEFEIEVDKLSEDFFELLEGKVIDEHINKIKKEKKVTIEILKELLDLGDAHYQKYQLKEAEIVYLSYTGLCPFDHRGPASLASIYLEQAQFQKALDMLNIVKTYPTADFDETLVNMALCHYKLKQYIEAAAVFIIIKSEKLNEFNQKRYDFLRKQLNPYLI
The experiment in a line: EMSA. The following applies: EMSA: 30 nM 5'-FAM probe, 20 µL with 4 µL 5x buffer (10 mM NaCl, 0.1 mM DTT, 0.1 mM EDTA, 10 mM Tris, pH 7.4; unclear if 5x or final), 25°C, 0.5 h, 6% PAGE. A general note: A gel shift assay detects complexes by their altered migration in electrophoresis.
As for “CGCTCTATAATGCTGACCCTTTTATCAATACTGTACTTATTTCCACAACAAAAAAGCGTACAGTTATTTACTTTTTTACCTTTAACTTGCTGTGAAAATAATATCGTCGACCTGCAGGCA (double strand) [mshA promoter]”, the binding result is on record as “binds”.

For “GCGCATAGCTGTTATAAGAATCCTCAATTCATTTCAATTAATGAGTATTCAGTCAATTAATAGAGCGATTTACTTCATAAAACCATTTTATTTTTATGGACTTAGCTCAAGAAATGACAGCATTATTAACTAATTTTAATAATTTGAGGAATGCATCAATAACTATTTCATATAAACACGATTTACTGTTGACTAAGTTTTATAAATATCGATGATCAGCAAGTTAAACTGAACGAAGTTTTATTCATTTGAAAGCGCAAGAACATGACTATCGTCGACCTGCAGGCA (double strand) [scrG promoter (PscrG)]”, the binding result is “binds”.

As to “TGCCTGCAGGTCGACGATCACAAGCAACAAAATTCATATTACTTCAACTAACTCAGTAAGTTGTAAGTAATTCATCATTAAAAAGGGCCACTAGGCCCTTTCTTTTTATCCATTAAAAAATAGCATTACTCGCAAAACTCTGCATACGATATGCAACTTTCTACCAAAGAGTTTTACCTCACTCGAGACCCCATCTCTTCCCCATTTTCAACCTTTATGAAGTCTCCATAATCCTTCGCTAATGCAAGGGCATTATTTATTTCATTAAGAAGGAAAG (double strand) [pilA promoter]”, the binding entry is listed as “binds”.
